B1: DP-1^172/173: mutant DP-1 protein with residues A172 and L173 changed to glycine (protein, UniProt Q14186 1-410, looked up, variant A172G L173G)
Transcription factor Dp-1: MAKDAGLIEANGELKVFIDQNLSPGKGVVSLVAVHPSTVNPLGKQLLPKTFGQSNVNIAQQVVIGTPQRPAASNTLVVGSPHTPSTHFASQNQPSDSSPWSAGKRNRKGEKNGKGLRHFSMKVCEKVQRKGTTSYNEVADELVAEFSAADNHILPNESAYDQKNIRRRVYDGGNVLMAMNIISKEKKEIKWIGLPTNSAQECQNLEVERQRRLERIKQKQSQLQELILQQIAFKNLVQRNRHAEQQASRPPPPNSVIHLPFIIVNTSKKTVIDCSISNDKFEYLFNFDNTFEIHDDIEVLKRMGMACGLESGSCSAEDLKMARSLVPKALEPYVTEMAQGTVGGVFITTAGSTSNGTRFSASDLTNGADGMLATSSNGSQYSGSRVETPVSYVGEDDEEDDDFNENDEDD

How the values were obtained:
Type in all cases: cell-based
[1] = tested on: E2F tumour cell line (E2F4 tumour cells); conditions: 24 hours; 33 μM peptide, 33 μM etoposide
Procedure: After 24 hours random regions of the culture dish were examined and the percentage of nonviable cells determined by counting cells with an abnormal morphology.
At 24 hours post treatment cellular morphology was noted and those with a rounded abnormal appearance were scored as dead.
Cells were cultured as above.

[2] = tested on: E2F site-dependent transcription; experiment: yeast E2F binding site reporter assay (p4xWT.CYC1); conditions: A172 and L173 changed to glycine
From the text: (§1) To study the role of the DEF box region in the context of the wild-type DP-1 protein, we took advantage of a yeast assay previously used to assess the properties of the DP-1/E2F heterodimer (23,31). When assayed in the context of two-hybrid proteins, with DP-1 is fused the LexA DNA binding domain and E2F-1 to the transcriptional activation domain of GAL4, transcriptional stimulation of a reporter construct driven by LEXA DNA binding sites was apparent only when both proteins were expressed together. Similarly, transcriptional activation of a reporter gene driven by physiological E2F DNA binding sites, in p4xWT.CYC1 (23,31), was dependent upon the presence of both proteins.
(§2) The yeast two-hybrid expression plasmids used were PLEX(HIS) which contains the complete LexA coding sequence, pGAD.L6 which contains the Gal 4 transcription activation domain. pLEX(HIS).DP-1 contains the murine DP-1 fused to the C-terminus of the LexA coding sequence and GAD.E2F-1 the human E2F-1 downstream of the Gal4 activation domain; all constructs were as described previously (23,31), apart from pLEX-DP-1/MT which contained DP-1 with residues 172 and 173 altered to glycine residues. Yeast strain CTY10-5d was used for the two-hybrid assay and W3031a, which carries p4xWT.CYC 1, for the E2F site-dependent transcription assay (23,31).

[3] = target: T1, DP-1/E2F-1 interaction (UniProt Q01094+Q08639, A172G/L173G); experiment: yeast two-hybrid assay LexA-DP-1 / GAL4 activation domain-E2F-1; conditions: A172 and L173 changed to glycine
T1 construct: expressed in transfected cells; host or cells: yeast strain CTY10-5d
T1 sequence (Q01094 whole entry, the tested form may be a part): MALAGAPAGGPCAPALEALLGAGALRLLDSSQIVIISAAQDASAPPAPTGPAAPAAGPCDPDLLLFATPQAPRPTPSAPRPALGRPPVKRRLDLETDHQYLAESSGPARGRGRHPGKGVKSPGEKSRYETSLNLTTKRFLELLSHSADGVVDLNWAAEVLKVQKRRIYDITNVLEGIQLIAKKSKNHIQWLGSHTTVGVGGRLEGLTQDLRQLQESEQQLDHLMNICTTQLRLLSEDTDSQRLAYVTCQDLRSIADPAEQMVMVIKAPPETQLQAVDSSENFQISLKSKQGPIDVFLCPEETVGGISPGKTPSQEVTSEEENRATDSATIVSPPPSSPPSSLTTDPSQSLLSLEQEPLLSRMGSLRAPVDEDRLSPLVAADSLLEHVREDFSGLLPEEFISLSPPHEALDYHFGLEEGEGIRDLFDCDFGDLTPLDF
T1 sequence (Q08639 whole entry A172G/L173G, the tested form may be a part): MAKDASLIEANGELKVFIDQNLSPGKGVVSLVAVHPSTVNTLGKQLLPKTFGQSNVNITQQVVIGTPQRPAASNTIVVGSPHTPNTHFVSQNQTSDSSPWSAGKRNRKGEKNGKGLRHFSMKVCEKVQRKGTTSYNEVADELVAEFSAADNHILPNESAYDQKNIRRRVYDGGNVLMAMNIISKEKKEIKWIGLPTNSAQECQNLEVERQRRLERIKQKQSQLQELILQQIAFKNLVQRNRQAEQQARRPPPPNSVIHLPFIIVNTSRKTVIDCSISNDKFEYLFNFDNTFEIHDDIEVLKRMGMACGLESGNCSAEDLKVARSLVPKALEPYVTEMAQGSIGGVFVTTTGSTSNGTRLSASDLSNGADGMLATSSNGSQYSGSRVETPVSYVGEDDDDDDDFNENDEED
From the text: as §1, §2

Row | Molecule | cell death (cells with rounded abnormal appearance scored as dead) [1] | reduction of response of E2F binding site reporter [2] | reduction of activity relative to wild-type DP-1 in two-hybrid assay [3]
1 | COc1cc([C@@H]2c3cc4c(cc3[C@@H](O[C@@H]3O[C@@H]5CO[C@@H](C)O[C@H]5[C@H](O)[C@H]3O)[C@H]3COC(=O)[C@H]23)OCO4)cc(OC)c1O [etoposide] | approximately 15% |  | 
2 | B1 |  | about 50% | about 50%

— US7160981B2, “Peptide antagonists of DP transcription factors” (Prolifix Limited, priority 1996, dated 2007)
